Results: PMC3948114

B1: unnamed (parent)
chain 1: HMGGQDKPFLSAWPSAVVPRGGHVTLRCHYRHRFNNFMLYKEDRIHIPIFHGRIFQESFNMSPVTTAHAGNYTCRGSHPHSPTGWSAPSNPVVIMVTGNHRKPSLLAHPGPLVKSGERVILQCWSDIMFEHFFLHKEGISKDPSRLVGQIHDGVSKANFSIGPMMLALAGTYRCYGSVTHTPYQLSAPSDPLDIVVTGPYEKPSLSAQPGPKVQAGESVTLSCSSRSSYDMYHLSREGGAHERRLPAVRKVNRTFQADFPLGPATHGGTYRCFGSFRHSPYEWSDPSDPLLVSVTGNPSSSWPSPTEPSSKSGNPRHLHILIGTSVVIILFILLLFFLLHLWCSNKKNAAVMDQEPAGNRTANSEDSDEQDPEEVTYAQLDHCVFTQRKITRPSQRPKTPPTDTILYTELPNAKPRSKVVSCP
chain 2: not shown
chain 3: not shown
chain 4: TSTLQEQIDW

Variants of: B1
Experiment: tetramer staining of transfected HEK293 cells
Conditions: with partner chain of the complex shown; 0.2 μg tetramer; read off a plot

Row | Variant | response (% of *001 TW10)
1 | chain 1 L166A | 90
2 | chain 1 L166V | 46
3 | chain 1 E282A | 26
4 | chain 1 E282Q | 130
5 | chain 1 A167G | 10
